Experiments:
Assay type in all cases: cell-based, Homo sapiens
[1] = tested on: caspase 8 in HCT116 GFP-Trap immunoprecipitates; test: Caspase 8 activity (caspase glo 8) of GFP immunoprecipitates (beads)
Description: 15 cm dishes were seeded with 4 million HCT116 cells and allowed to recover for 18 hr prior to transfection. Samples were then transfected for 24 hr with the GFP-tagged ER trafficked protein, cytosolic GFP, or empty vector. To harvest apoptotic and living cells for each sample, all media and washes were collected. Cells were scraped in 2 ml of cold PBS and combined with the media and washes. Samples were centrifuged to pellet cells, washed with 1 ml cold PBS, and flash frozen in liquid N2 prior to lysis.
The cell pellets were resuspended in 750 μl of 30 mM HEPES pH 7.2, 150 mM NaCl, 1% Triton X-100 with 1x Roche protease inhibitor cocktail (if used subsequently for caspase glo 8 assay) or with 5x Roche protease inhibitor cocktail (if used for immunoblotting). The cells were lysed by mechanical shearing through a 25G needle for 13–15 plunges followed by incubation on ice for 30 min. The lysate was centrifuged at 2000xg for 5 min to remove debris and then incubated with 30 μl of GFP-Trap magnetic agarose beads (Chromotek gtma-20) for 4 hr at 4°C. The beads were then washed with 750 μl of lysis buffer for 10 min at 4°C for three rounds.
For measuring caspase activity, a fifth of the beads was resuspended in 40 μl of 30 mM HEPES pH 7.2, 150 mM NaCl, 1% Triton X-100. 10 μl of the resuspended mixture was incubated with 10 ul of the caspase glo 8 luminogenic substrate (Promega #PRG8200) for 45 min at RT before measuring luminescence.

HCT116 cells = test: Trypan blue staining, automated cell counting; design: key to Trypan blue- / Trypan blue+ / avg Trypan blue- / avg Trypan blue+: % of cells (Trypan blue positive or negative); details: for Dead concentration / Live concentration / Total Concentration / Viability (%): hct mpz, BF
Description: Cells seeded in a 6-well plate were transfected with the specified plasmid for 24 hr and harvested via trypsinization in complete media and ultimately resuspended in 400 μl of media to obtain a concentration of 1.0–3.0 × 10^6 cells/ml. The cell suspension was then mixed 1:1 with 0.4% Trypan blue (Sigma-Aldrich) and incubated at 37°C for 30 min. The percentage of cells staining positive for was then quantified using the Countess II FL Automated Cell Counter (ThermoFisher, catalog # AMQAF1000) default brightfield settings with disposable slides.

[2] = tested on: DR5 / ERGIC53 / giantin in HCT116 cells; test: Immunofluorescence co-localization (Pearson's correlation per cell)
Description: HCT116 were seeded at 25000 cells per well in an 8-well glass-bottom μSlide (Ibidi 80827) pre-coated with Collagen IV (Sigma-Aldrich C6745, 0.03 mg/ml in PBS incubated for 30 min at RT, and then rinsed off with PBS x 3) in growth media 18 hr prior to transfection (see above for protocol). 24 hr post-transfection, the cells were fixed using 4% paraformaldehyde (PFA, Electron Microscopy Sciences) or methanol, depending on the antibody combination used for immunostaining (see table below). Samples were protected from light after fixation to preserve GFP fluorescence.
For fixation with 4% PFA, 32% PFA was added directly to the well in growth media for a 1:8 dilution and incubated for 10–15 min at RT. Cells were then permeabilized with PHEM buffer (60 mM PIPES, 25 mM HEPES, 10 mM EGTA, 2 mM MgCl2-hexahydrate, pH 6.9) containing 0.1% Triton-X100 for 10 min at RT for three washes.
For fixation with methanol, media was removed and cells were washed with cold PBS. Then methanol (pre-cooled at −20°C) was added to the well and incubated at −20°C for 3–4 min. The methanol was promptly aspirated and replaced with PHEM buffer (without Triton X-100), followed by two more 10 min washes with PHEM at RT.
To block against non-specific antibody interactions, cells were rinsed in PHEM (without 0.1% Triton X-100) and then incubated with PHEM containing 2% normal goat serum (Jackson Immunoresearch Laboratories, 005-000-121) for 1 hr at RT. Primary antibodies were incubated in blocking solution overnight at 4°C at the dilution noted in the table above. […]
From the 405 nm channel, cell nuclei were identified as primary objects using maximum correlation thresholding (MCT) and shape to distinguish clumped objects. […] For overlap between DR5 and MPZ/RHO-GFP, Pearson’s correlation coefficients were calculated within the MPZ/RHO mask for each cell to filter out untransfected cells. For overlap between DR5/MPZ and organelle markers, Pearson’s correlation coefficients were calculated within tertiary objects for the organelle marker in GFP+ cells. […]

DR5 = DR5 immunoprecipitation (blotted for DR5, MPZ-GFP, FADD); details: HCT116 transfected with MPZ-GFP
Description: IP for DR5 was performed as previously described in [Lu et al. (2014)], using anti-DR5 mAb 5C7-conjugated agarose beads gifted by David Lawrence of the Ashkenazi lab at Genentech Inc.

[3] = biological replicate 1 (05.22.2019)
[4] = biological replicate 2 (05.24.2019)
[5] = biological replicate 3 (05.24.2019)
[6] = MPZ-positive cells, N > 55, 24 hr, mean

average fold change in caspase 8 activity relative to empty ([1]; GFP IP beads, run 2019-02-05): 2.174 fold
average fold change (relative to empty average) ([1]; GFP beads, dilution 0.0666667, average of rep1-rep3): 3.5
fold change in caspase 8 activity, Mean ± SEM (unpaired t test) ([1]; GFP beads, n=3): 2.621 ± 0.4397, n=3 fold
average fold change in caspase 8 activity relative to empty ([1]; GFP beads, sheet 2018-02-11 (compiled as Rep 2019-02-11)): 3.5 fold
fold change in caspase 8 activity, average of averages ([1]; GFP beads, three runs compiled): 2.621 fold
caspase 8 activity of immunoprecipitates compared to empty beads ([1]; MPZ-GFP immunoprecipitates, 24 hr post-transfection): 2–3 fold
B1: MPZ-GFP: myelin protein zero with a C-terminal monomeric EGFP, expressed from plasmid (protein)
chain: IVVYTDREVHGAVGSRVTLHCSFWSSEWVSDDISFTWRYQPEGGRDAISIFHYAKGQPYIDEVGTFKERIQWVGDPRWKDGSIVIHNLDYSDNGTFTCDVKNPPDIVGKTSQVTLYVFEKVPTRYGVVLGAVIGGVLGVVLLLLLLFYVVRYCWLRRQAALQRRLSAMEKGKLHKPGKDASKRGRQTPVLYAMLDHSRSTKAVSEKKAKGLGESRKDKK
modifications: left off: monomeric EGFP, C-terminal, kept
notes: myelin protein zero with a C-terminal monomeric EGFP, expressed from plasmid
Trypan blue+ (HCT116 cells; MPZ-GFP, Rep 1): 47.8261
Trypan blue- (HCT116 cells; MPZ-GFP, Rep 1): 52.1739
Trypan blue+ (HCT116 cells; MPZ-GFP, Rep 2): 36.3817
Trypan blue- (HCT116 cells; MPZ-GFP, Rep 2): 63.6183
Trypan blue+ (HCT116 cells; MPZ-GFP, Rep 3): 29.5129
Trypan blue- (HCT116 cells; MPZ-GFP, Rep 3): 70.4871
avg Trypan blue+ (HCT116 cells; MPZ-GFP, avg of Rep 1-3): 37.9069
avg Trypan blue- (HCT116 cells; MPZ-GFP, avg of Rep 1-3): 62.0931
Dead concentration (HCT116 cells; [3]): 3.87E+05
Live concentration (HCT116 cells; [3]): 4.22E+05
Total Concentration (HCT116 cells; [3]): 8.09E+05
Viability (%) (HCT116 cells; [3]): 52.1739%
Dead concentration (HCT116 cells; [4]): 1.07E+06
Live concentration (HCT116 cells; [4]): 1.88E+06
Total Concentration (HCT116 cells; [4]): 2.95E+06
Viability (%) (HCT116 cells; [4]): 63.6183%
Dead concentration (HCT116 cells; [5]): 1.21E+06
Live concentration (HCT116 cells; [5]): 2.89E+06
Total Concentration (HCT116 cells; [5]): 4.09E+06
Viability (%) (HCT116 cells; [5]): 70.4871%
Pearson's correlation per cell between DR5 and ERGIC53 [2, 6]: 0.61 ± 0.03
Pearson's correlation per cell between DR5 and giantin [2, 6]: 0.14 ± 0.02
overlap (mean Pearson's correlation) with DR5 signal ([2]; versus 90° rotated images, 24 hr): statistically significant overlap with DR5 signal
DR5 pull-down (DR5): enriched for FADD and MPZ-GFP
